Biological target: c-met receptor tyrosine kinase (native, on MM cell surface) (Homo sapiens) (UniProt P08581)
Experiment: flow cytometry cell binding
Settings: MM.1S cells; library signal subtracted; 5 mM MgCl2; 1x PBS, 4.5 g/L glucose, 5 mM MgCl2, 0.1 mg/mL yeast tRNA, 1 mg/mL BSA, 4 C, 30 min; 3e5 cells in 200 uL; pH not stated

c-met receptor tyrosine kinase (native, on MM cell surface) (Homo sapiens), sequence (P08581 25-1390): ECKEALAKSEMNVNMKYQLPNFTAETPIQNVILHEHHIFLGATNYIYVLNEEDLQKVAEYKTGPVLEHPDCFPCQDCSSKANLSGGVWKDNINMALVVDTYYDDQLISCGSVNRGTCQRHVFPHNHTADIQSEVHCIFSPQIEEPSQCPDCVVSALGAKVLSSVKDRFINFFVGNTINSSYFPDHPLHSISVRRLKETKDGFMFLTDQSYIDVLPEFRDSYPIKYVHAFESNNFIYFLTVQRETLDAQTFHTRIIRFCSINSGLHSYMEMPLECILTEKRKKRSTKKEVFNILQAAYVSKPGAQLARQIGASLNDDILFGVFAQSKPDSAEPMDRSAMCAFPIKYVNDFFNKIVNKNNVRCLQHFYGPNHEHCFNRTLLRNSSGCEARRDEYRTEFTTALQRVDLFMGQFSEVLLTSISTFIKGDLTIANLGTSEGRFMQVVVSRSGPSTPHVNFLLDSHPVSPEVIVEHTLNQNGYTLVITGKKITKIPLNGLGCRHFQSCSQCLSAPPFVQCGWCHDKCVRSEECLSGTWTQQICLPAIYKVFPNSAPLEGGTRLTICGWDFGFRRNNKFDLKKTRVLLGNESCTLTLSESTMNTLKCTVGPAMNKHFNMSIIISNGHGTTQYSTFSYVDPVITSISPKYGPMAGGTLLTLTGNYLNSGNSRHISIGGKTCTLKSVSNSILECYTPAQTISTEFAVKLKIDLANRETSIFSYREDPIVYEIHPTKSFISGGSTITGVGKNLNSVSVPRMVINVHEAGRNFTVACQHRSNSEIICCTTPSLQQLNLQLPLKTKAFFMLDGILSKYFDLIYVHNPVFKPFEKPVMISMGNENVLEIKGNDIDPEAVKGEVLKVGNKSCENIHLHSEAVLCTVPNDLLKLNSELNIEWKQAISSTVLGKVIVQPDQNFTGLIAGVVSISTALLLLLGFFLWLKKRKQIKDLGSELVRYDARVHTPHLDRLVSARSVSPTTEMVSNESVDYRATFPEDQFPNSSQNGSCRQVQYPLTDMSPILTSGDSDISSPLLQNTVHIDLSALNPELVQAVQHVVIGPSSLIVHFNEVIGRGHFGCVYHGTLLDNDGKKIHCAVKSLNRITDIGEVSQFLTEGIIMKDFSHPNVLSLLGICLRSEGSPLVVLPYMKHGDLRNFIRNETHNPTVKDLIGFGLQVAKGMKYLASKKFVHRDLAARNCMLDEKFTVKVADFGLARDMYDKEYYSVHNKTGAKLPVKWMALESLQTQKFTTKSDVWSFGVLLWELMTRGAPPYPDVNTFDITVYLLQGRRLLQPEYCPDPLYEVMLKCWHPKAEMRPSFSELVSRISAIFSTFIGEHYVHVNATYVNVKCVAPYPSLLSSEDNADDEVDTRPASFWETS

With “ATCAGGCTGGATGGTAGCTCGGTCGGGGTGGGTGGGTTGGCAAGTCTGAT [SL1]” the Kd was 136 nM.
